Test results from paper PMC11329725 (Nature Communications, 2024).

T1: BRCA2 DBD (mouse, UniProt P97929 2378-3115)
T1 sequence: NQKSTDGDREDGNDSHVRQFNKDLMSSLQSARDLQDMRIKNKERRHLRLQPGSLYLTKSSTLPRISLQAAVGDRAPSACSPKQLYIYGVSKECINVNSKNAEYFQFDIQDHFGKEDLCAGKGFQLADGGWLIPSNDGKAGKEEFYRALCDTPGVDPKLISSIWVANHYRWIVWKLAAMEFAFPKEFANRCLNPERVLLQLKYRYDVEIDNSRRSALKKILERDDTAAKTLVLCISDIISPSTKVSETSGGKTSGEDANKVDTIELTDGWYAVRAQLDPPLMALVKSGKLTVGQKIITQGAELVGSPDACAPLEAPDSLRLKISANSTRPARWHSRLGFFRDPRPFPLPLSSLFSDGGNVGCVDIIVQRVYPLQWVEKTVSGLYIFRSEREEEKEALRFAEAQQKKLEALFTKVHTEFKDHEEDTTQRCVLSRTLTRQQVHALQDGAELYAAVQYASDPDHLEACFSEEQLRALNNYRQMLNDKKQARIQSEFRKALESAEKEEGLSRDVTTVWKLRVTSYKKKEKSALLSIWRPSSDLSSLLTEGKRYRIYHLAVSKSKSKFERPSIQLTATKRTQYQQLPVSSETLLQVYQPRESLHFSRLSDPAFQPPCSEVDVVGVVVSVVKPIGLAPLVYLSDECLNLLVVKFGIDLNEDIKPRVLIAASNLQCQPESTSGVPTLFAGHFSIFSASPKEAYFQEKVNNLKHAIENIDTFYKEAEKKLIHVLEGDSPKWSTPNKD

T2: OB23 (OB2-OB3 with tower) (human, UniProt P51587 2808-3192)
T2 sequence: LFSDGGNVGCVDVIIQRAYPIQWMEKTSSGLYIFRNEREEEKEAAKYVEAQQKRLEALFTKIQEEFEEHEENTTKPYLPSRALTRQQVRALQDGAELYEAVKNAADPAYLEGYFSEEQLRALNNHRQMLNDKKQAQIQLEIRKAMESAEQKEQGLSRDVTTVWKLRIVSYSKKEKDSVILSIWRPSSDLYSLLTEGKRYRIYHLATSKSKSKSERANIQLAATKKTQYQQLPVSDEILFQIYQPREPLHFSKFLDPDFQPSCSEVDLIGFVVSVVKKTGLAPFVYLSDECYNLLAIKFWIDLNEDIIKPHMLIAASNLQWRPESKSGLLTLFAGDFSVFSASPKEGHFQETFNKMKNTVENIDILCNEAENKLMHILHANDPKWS

T3: His6-HDOB1 (human BRCA2 helical domain and OB fold 1, residues 2479-2807) (human, UniProt P51587 2479-2807)
T3 sequence: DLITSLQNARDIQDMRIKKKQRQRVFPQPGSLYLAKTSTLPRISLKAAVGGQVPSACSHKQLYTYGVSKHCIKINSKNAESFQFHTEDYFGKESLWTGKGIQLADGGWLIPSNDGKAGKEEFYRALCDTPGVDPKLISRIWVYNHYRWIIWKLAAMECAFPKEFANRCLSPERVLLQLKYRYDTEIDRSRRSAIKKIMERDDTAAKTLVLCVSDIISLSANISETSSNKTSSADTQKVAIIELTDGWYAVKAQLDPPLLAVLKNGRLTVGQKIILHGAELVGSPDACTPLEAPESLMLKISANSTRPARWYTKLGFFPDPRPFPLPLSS


Key:
[1] = biological target: BRCA2 DBD;DSS1(1-36) (partner of DBD) (mouse;human?, UniProt P97929;P60896 2378-3115;1-36, |del37-70); experiment: EMSA
[2] = biological target: T1, BRCA2 DBD; experiment: EMSA
[3] = biological target: T2, OB23 (OB2-OB3 with tower); experiment: EMSA
[4] = biological target: BRCA2 DBD;DSS1(1-54) (partner of DBD) (mouse;human?, UniProt P97929;P60896 2378-3115;1-54, |del55-70); experiment: EMSA
[5] = biological target: BRCA2 DBD;DSS1 R57Q (partner of DBD) (mouse;human?, UniProt P97929;P60896 2378-3115;1-70, |R57Q); experiment: EMSA
[6] = biological target: T3, His6-HDOB1 (human BRCA2 helical domain …); experiment: co-purification

binding result [6]	Binder	binding result [1]	binding result [2]	Kd [3] [nM]	binding result [4]	binding result [5]
	Cy5 80-mer ssDNA (oligo 1) (ssDNA) DNA: TTATATCCTTTACTTTGAATTCTATGTTTAACCTTTTACTTATTTTGTATTAGCCGGACCTTATTTCAATTATGTTCAT	binds	binds	270	binds	binds
	Cy5 80-bp dsDNA (oligo 1/oligo 2) (dsDNA) DNA 1: TTATATCCTTTACTTTGAATTCTATGTTTAACCTTTTACTTATTTTGTATTAGCCGGACCTTATTTCAATTATGTTCAT DNA 2: ATGAACATAATTGAAATAAGGATCCGGCTAATACAAAATAAGTAAAAGGTTAAACATAGAATTCAAAGTAAAGGATATAA	binds	binds		binds	binds
binds	MSEKKQPVDLGLLEEDDEFEEFPAEDWAGLDEDEDAHVWEDNWDD (domain or fragment) [GST-DSS1 1-45, co-expressed with His6-HDOB1 in E. coli]					
binds	GST-DSS1 1-54, co-expressed with His6-HDOB1 in E. coli (domain or fragment) MSEKKQPVDLGLLEEDDEFEEFPAEDWAGLDEDEDAHVWEDNWDDDNVEDDFSN					
